How the values were obtained:
[1] = target: T1, Membrane-bound human uPAR on cells (human, UniProt Q03405 23-305); assay: in vivo imaging, 2 nmol labelled IgG, 48 hours after injection
T1 construct: whole, on cells; Also used for endogenous uPAR in H1299 lysates (co-immunoprecipitation) and in tumor xenografts and sections; also called cell surface uPAR; CD87

[2] = target: T2, Human soluble uPAR (residues 1-277) (human, UniProt Q03405 23-299); assay: equilibrium SPR (Biacore 1000), IgG immobilized on a CM5 chip, soluble uPAR as analyte, one site binding model
T2 construct: also called soluble human uPAR
T2 sequence (Q03405 23-299): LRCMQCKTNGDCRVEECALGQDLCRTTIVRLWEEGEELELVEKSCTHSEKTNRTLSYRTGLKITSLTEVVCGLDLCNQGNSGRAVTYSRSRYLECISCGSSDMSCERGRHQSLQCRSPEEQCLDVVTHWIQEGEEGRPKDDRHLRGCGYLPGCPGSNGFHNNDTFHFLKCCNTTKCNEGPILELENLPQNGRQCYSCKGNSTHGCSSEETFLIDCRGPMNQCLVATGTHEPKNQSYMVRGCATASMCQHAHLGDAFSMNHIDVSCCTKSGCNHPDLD

[3] = target: T2, Human soluble uPAR (residues 1-277); assay: equilibrium SPR (Biacore), IgG immobilized, soluble uPAR as analyte (FIG. 4)

T1 sequence (Q03405 23-305): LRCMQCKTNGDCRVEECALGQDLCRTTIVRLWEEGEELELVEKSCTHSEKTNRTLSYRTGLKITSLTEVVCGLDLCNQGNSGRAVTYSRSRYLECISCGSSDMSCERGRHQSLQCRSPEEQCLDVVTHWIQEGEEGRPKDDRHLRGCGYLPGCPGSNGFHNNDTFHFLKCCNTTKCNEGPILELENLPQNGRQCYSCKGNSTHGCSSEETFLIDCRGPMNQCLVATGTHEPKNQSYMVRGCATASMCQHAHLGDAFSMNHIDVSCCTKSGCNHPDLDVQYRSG

B1: 3C6 IgG (antibody, V domains shown)
VH: QVQLQQWGAGLLKPSETLSLTCAVYGGSFSGYYWSWIRQPPGKGLEWIGEINHSGSTNYNPSLKSRVTISVDTSKNQFSLKLSSVTAADTAVYYCARGRRFGDFDYWGQGTLVTVSS
VL: QPVLTQPPSVSVAPGKTARITCGGNNIGSKSVHWYQQKPGQAPVLVVYDDSDRPPGIPERFSGSNSGNTATLTISRVEAGDEADYYCQVWDSSSDHSPFGTGTKVTVLG
notes: not shown: IgG constant region; the making of 3C6 IgG is not described
Does B1 bind [1]?
Result: binds

B2: 2E9 IgG (antibody, V domains shown)
VH: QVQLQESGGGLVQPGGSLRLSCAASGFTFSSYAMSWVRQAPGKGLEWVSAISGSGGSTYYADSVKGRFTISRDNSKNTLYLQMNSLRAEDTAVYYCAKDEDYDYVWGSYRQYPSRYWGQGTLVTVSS
VL: QSVLTQPPSVSVSPGQTASITCSGDNLGYKYASWYQQKPGQSPVLIIYQDKKRPSGIPERFSGSNSGNTATLTISGTQAMDEADYYCQAWDSSTSVVFGGGTKLTVLG
notes: also called 2E9 IgG1; not shown: human IgG1 constant region of vector pTT5-SP-H1
Which Kd [2] does the source give for B2 here?
The Kd was 9.2 nM.

B3: 1A8 IgG (antibody, V domains shown)
VH: QVQLQQSGPGLVKPSQTLSLTCAISGDSVSSNSAAWNWIRQSPSRGLEWLGRTYYRSKWYNDYAVSVKSRITINPDTSKNQFSLQLNSVTPEDTAVYYCTRDPGGALDDSFDIWGQGTMVTVSS
VL: DVVMTQSPASLSVSVGDRVTLTCQASQVINNHLNWYQQQPGKAPKLLVYDASNLETGVPSRFSGSGSGTDFTFTISGLQPEDIATYYCQQSDNLPLTFGGGTKLEIKR
notes: also called 1A8 IgG1; not shown: human IgG1 constant region of vector pTT5-SP-H1
B3 was tested. Which Kd [2] did it give?
Its Kd is 23.8 nM.

B4: 2G10 IgG (antibody, V domains shown)
VH: QVQLQQSGPGLVKPSQTLSLTCAISGDSVSSNSAAWNWIRQSPSRGLEWLGRTYYRSKWYNDYAVSVKSRIIINPDTSKNQFSLQLNSVTPEDTAVYYCARDPGGPLDDSFDIWGQGTMVTVSS
VL: DVVMTQSPLSLPVTPGEPASISCRSSQSLLRSNGYNYLDWYLQKPGQSPQLLIYLGSIRASGVPDRFSGSGSGTDFTLRISRVEAEDVGVYYCMQALQTPFTFGQGTKLEIKR
modifications: Alexa Fluor 680 (about 15 dyes per IgG) or DOTA-111In in the imaging experiments. It is unlabelled in SPR and flow cytometry.
notes: Used with an Alexa Fluor 680 or 111In-DOTA label in the in vivo imaging; also called 2G10 IgG1; DOTA-2G10 IgG
With B4 as the binder, how does the Kd [3] read?
Its Kd is roughly 40.5 nM.

What about the Kd [2] of the same binder?
The Kd was 40.5 nM.
